Where “and” joins values, the source holds several entries; their conditions need not be identical. Equal entries are not always repeated.
Assays:
[1] = biological target: T1, Rho (transcription termination factor) wt (Escherichia coli, UniProt P0AG30 1-419); experiment: fluorescence anisotropy
[2] = biological target: T1, Rho (transcription termination factor) …; experiment: fluorescence anisotropy; remark: listed apart in the source
[3] = biological target: Rho (transcription termination factor) wt;Rof D14A (Escherichia coli;Escherichia coli, UniProt P0AG30;P0AFW8 1-419;1-84, |D14A); experiment: fluorescence anisotropy
[4] = biological target: Rho (transcription termination factor) wt;Rof Y13A (Escherichia coli;Escherichia coli, UniProt P0AG30;P0AFW8 1-419;1-84, |Y13A); experiment: fluorescence anisotropy
[5] = biological target: Escherichia coli transcription termination factor ρ, wildtype (E. coli, UniProt P0AG30 1-419); experiment: cryo-EM structure
[6] = biological target: Escherichia coli transcription termination factor ρ F89S (E. coli, UniProt P0AG30 1-419, F89S); experiment: SEC
[7] = biological target: Escherichia coli transcription termination factor ρ K115E (E. coli, UniProt P0AG30 1-419, K115E); experiment: SEC

Binder: UUUUUUUUUUUU (ssRNA) [rU12]
- binding result [1]: binds

Binder: CCCCCCCCCCCCCCC (ssDNA) [dC15]
- Kd [2]: 1000 nM
- binding result [3]: binds
- binding result [4]: binds

B1: Escherichia coli Rof, wildtype, tag-less (natural protein, E. coli)
chain: MNDTYQPINCDDYDNLELACQHHLMLTLELKDGEKLQAKASDLVSRKNVEYLVVEAAGETRELRLDKITSFSHPEIGTVVVSES
- stoichiometry N [5]: 5 Rof molecules per ρ hexamer and 4 Rof molecules per ρ pentamer
- binding result [6]: binds
- binding result [7]: binds
